{"source": "patent US20050043221A1", "about": "(BROWN UNIVERSITY, published 2005)", "binders": {"B1": {"name": "γ-sarcoglycan, 35S-methionine-labelled, in vitro translated (other, human, UniProt Q13326 1-291, looked up)", "chain": "MVREQYTTATEGICIERPENQYVYKIGIYGWRKRCLYLFVLLLLIILVVNLALTIWILKVMWFSPAGMGHLCVTKDGLRLEGESEFLFPLYAKEIHSRVDSSLLLQSTQNVTVNARNSEGEVTGRLKVGPKMVEVQNQQFQINSNDGKPLFTVDEKEVVVGTDKLRVTGPEGALFEHSVETPLVRADPFQDLRLESPTRSLSMDAPRGVHIQAHAGKIEALSQMDILFHSSDGMLVLDAETVCLPKLVQGTWGPSGSSQSLYEICVCPDGKLYLSVAGVSTTCQEHNHICL", "notes": "also called gamma sarcoglycan"}, "B2": {"name": "β-sarcoglycan, 35S-methionine-labelled, in vitro translated (other, human, UniProt Q16585 1-318, looked up)", "chain": "MAAAAAAAAEQQSSNGPVKKSMREKAVERRSVNKEHNSNFKAGYIPIDEDRLHKTGLRGRKGNLAICVIILLFILAVINLIITLVIWAVIRIGPNGCDSMEFHESGLLRFKQVSDMGVIHPLYKSTVGGRRNENLVITGNNQPIVFQQGTTKLSVENNKTSITSDIGMQFFDPRTQNILFSTDYETHEFHLPSGVKSLNVQKASTERITSNATSDLNIKVDGRAIVRGNEGVFIMGKTIEFHMGGNMELKAENSIILNGSVMVSTTRLPSSSSGDQLGSGDWVRYKLCMCADGTLFKVQVTSQNMGCQISDNPCGNTH", "notes": "also called beta-sarcoglycan"}, "B3": {"name": "recombinant decorin core polypeptide (no side chains), vaccinia system (other, UniProt P07585 31-359, looked up, not shown: small tags and cut ends)", "chain": "DEASGIGPEVPDDRDFEPSLGPVCPFRCQCHLRVVQCSDLGLDKVPKDLPPDTTLLDLQNNKITEIKDGDFKNLKNLHALILVNNKISKVSPGAFTPLVKLERLYLSKNQLKELPEKMPKTLQELRAHENEITKVRKVTFNGLNQMIVIELGTNPLKSSGIENGAFQGMKKLSYIRIADTNITSIPQGLPPSLTELHLDGNKISRVDAASLKGLNNLAKLGLSFNSISAVDNGSLANTPHLRELHLDNNKLTRVPGGLAEHKYIQVVYLHNNNISVVGSSDFCPPGHNTKKASYSGVSLFSNPVQYWEIQPSTFRCVYVRSAIQLGNYK"}, "B4": {"name": "recombinant decorin proteoglycan (core and side chains), vaccinia system (other, UniProt P07585 31-359, looked up, not shown: small tags and cut ends)", "chain": "B3 chain", "modifications": "glycosaminoglycan side chain", "notes": "also called DEC-PG; DECPG"}}, "key": {"[1]": {"molecular_target": "T1, recombinant human biglycan core polypeptide (no side chains), His-tagged, vaccinia system (human, UniProt P21810 38-368)", "T1 construct": "GAG attachment sites present but not substituted; also called BGN; core biglycan; not shown: N-terminal cassette His6-[Glu-Ser]-factor Xa site-[Leu-Glu]", "T1 sequence": "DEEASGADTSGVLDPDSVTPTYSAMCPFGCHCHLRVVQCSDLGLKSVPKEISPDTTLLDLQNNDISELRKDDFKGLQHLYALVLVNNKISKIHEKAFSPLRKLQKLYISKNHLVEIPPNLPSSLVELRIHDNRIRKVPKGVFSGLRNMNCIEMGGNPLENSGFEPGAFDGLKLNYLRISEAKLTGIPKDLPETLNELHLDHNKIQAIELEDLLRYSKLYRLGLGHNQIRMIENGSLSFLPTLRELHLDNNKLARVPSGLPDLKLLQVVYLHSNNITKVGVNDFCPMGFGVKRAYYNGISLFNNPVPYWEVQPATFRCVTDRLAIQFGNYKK", "experiment": "blot overlay with 35S in vitro translated sarcoglycan"}, "[2]": {"molecular_target": "B3", "experiment": "blot overlay with 35S in vitro translated sarcoglycan"}, "[3]": {"molecular_target": "B4", "experiment": "blot overlay with 35S in vitro translated sarcoglycan"}, "[4]": {"molecular_target": "B3", "experiment": "blot overlay"}, "[5]": {"molecular_target": "T1, recombinant human biglycan core …", "experiment": "co-immunoprecipitation in solution with anti-biglycan or anti-poly-His, protein G beads"}, "[6]": {"molecular_target": "T2, α-sarcoglycan, 35S-methionine-labelled, in vitro translated (human, UniProt Q16586 1-387, limits assumed)", "T2 construct": "also called alpha-sarcoglycan", "T2 sequence (looked up)": "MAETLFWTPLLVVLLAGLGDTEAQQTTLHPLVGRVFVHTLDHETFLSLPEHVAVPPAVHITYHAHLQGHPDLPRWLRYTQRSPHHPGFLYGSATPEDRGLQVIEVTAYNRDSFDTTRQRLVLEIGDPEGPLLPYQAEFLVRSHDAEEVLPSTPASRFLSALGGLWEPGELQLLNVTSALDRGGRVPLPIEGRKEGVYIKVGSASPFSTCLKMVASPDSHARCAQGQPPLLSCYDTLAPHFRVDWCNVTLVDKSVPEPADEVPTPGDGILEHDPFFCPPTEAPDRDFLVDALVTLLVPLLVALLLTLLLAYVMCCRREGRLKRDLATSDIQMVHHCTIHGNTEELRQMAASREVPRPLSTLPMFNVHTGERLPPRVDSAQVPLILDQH", "experiment": "blot overlay with 35S in vitro translated sarcoglycan"}}, "data": [{"binder": "B1", "values": [{"measurement": "binding result", "setting": "[1]", "result": "binds"}, {"measurement": "binding result", "setting": "[2]", "result": "no binding"}, {"measurement": "binding result", "setting": "[3]", "result": "no binding"}]}, {"binder": "B2", "values": [{"measurement": "binding result", "setting": "[4]", "result": "no binding"}, {"measurement": "binding result", "setting": "[5]", "result": "no binding"}]}, {"binder": "B3", "values": [{"measurement": "binding result", "setting": "[6]", "result": "no binding"}]}, {"binder": "B4", "values": [{"measurement": "binding result", "setting": "[6]", "result": "no binding"}]}]}
